# In PMC8809517, “Cofactor-independent RNA editing by a synthetic S-type PPR protein”:
# T1: GFP-9S library array, motif 4 ND N98D;D124S (synthetic construct, N98D;D124S)
# T1 chain: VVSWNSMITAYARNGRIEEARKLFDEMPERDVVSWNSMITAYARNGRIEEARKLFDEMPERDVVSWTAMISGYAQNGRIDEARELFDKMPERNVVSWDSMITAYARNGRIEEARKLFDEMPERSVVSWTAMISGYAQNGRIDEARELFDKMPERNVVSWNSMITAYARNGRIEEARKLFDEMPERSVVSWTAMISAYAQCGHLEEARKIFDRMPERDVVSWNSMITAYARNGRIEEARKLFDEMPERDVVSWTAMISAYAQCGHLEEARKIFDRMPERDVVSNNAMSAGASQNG
# T2: GFP-9S library array, motif 4 ND N98S;D124L (synthetic construct, N98S;D124L)
# T2 chain: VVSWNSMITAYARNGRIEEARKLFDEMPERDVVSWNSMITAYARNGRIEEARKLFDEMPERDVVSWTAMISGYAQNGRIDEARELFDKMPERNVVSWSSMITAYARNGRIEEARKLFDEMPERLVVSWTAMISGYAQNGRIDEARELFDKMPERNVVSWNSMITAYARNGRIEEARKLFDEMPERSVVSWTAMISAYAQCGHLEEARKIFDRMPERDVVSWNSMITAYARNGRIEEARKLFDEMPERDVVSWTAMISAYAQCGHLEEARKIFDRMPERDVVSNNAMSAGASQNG
# T3: GFP-9S library array, motif 4 ND N98Y;D124L (synthetic construct, N98Y;D124L)
# T3 chain: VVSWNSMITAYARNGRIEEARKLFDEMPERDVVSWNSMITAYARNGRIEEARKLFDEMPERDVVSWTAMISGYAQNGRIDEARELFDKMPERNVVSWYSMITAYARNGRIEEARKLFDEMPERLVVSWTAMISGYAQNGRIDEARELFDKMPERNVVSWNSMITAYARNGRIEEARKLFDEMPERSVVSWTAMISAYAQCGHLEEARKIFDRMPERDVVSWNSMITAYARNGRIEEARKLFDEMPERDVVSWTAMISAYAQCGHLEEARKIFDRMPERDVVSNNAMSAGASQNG
# T4: GFP-9S library array, motif 4 ND N98S;D124S (synthetic construct, N98S;D124S)
# T4 chain: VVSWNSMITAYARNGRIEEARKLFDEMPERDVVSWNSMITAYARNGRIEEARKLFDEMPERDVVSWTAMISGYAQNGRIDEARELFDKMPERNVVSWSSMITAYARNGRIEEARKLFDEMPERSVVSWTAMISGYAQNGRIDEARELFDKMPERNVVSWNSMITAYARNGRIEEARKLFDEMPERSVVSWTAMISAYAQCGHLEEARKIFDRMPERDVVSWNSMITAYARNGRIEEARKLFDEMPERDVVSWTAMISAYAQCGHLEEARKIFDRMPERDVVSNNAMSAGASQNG
# T5: GFP-9S library array, motif 4 ND N98C;D124E (synthetic construct, N98C;D124E)
# T5 chain: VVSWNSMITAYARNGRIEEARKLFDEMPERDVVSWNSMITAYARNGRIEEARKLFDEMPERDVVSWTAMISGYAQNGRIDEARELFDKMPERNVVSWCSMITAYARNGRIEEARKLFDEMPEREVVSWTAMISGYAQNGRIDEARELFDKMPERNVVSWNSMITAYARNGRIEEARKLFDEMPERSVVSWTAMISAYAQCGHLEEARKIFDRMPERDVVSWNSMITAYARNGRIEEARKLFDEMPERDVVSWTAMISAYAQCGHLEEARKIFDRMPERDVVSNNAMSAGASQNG
# Key:
# Assay in all cases: high-throughput RNA pulldown from lysate on Ni-NTA beads; HRP: 50 mM Tris pH 8, 150 mM NaCl, 1 mM beta-mercaptoethanol, 50 ug/ml BSA, 3 ug/ml yeast RNA, 0.5% heparin; ITC and FP: Tris pH 8, 200 mM KCl, 5% glycerol; MST: 50 mM Tris pH 8, 200 mM NaCl, 1 mM DTT, BSA, heparin, 0.05% Tween 20
# Settings in all cases: tags: N-terminal His-eGFP
# [1] = target: T1, GFP-9S library array, motif 4 ND …
# [2] = target: T2, GFP-9S library array, motif 4 ND …
# [3] = target: T3, GFP-9S library array, motif 4 ND …
# [4] = target: T4, GFP-9S library array, motif 4 ND …
# [5] = target: T5, GFP-9S library array, motif 4 ND …
Binder,Kd ([1]; label: 5' Cy5) [nM],Kd ([2]; label: 5' Cy5) [nM],Kd ([3]; label: 5' Cy5) [nM],Kd ([4]; label: 5' Cy5) [nM],Kd ([5]; label: 5' Cy5) [nM],Kd ([1]; label: 5' IRDye 800CW) [nM],Kd ([2]; label: 5' IRDye 800CW) [nM],Kd ([3]; label: 5' IRDye 800CW) [nM],Kd ([4]; label: 5' IRDye 800CW) [nM],Kd ([5]; label: 5' IRDye 800CW) [nM]
AUUACACGUGA (ssRNA) [Cy5-rpoA],401,83.5,89.7,112,503,,,,,
AUUAUACGUGA (ssRNA) [IR-rpoA-U],,,,,,470,164,199,69.8,170
AUUAAACGUGA (ssRNA) [IR-rpoA-A],,,,,,759,159,162,65.3,146
AUUAGACGUGA (ssRNA) [Cy5-rpoA-G],260,94,74.6,251,39.5,,,,,
